# Experimental data: patent US20170002055A1, “Novel peptides and combination of peptides for use in immunotherapy against ovarian cancer and other cancers” (immatics biotechnologies GmbH, priority 2015, published 2017)
# Biological target: HLA-A*02:01 (Homo sapiens, UniProt P04439, D140Y/D185E/D98H/E176V/E277Q/G131W/G231S/I119V/I121R/I166T/I218V/L300P/L318F/N151K/N90K/P208A/P217A/Q86G/Q94H/R138H/R169H/T345S)
# Experiment: MHC binding assay (UV-ligand exchange, β2m ELISA, peptide exchange yield)
# Details: MHC class I binding score; binding to HLA-A*02:01 ranged by peptide exchange yield (UV-ligand exchange, β2m ELISA)
# Description: Candidate peptides for T cell based therapies according to the present invention were further tested for their MHC binding capacity (affinity). The individual peptide-MHC complexes were produced by UV-ligand exchange, where a UV-sensitive peptide is cleaved upon UV-irradiation, and exchanged with the peptide of interest as analyzed. Only peptide candidates that can effectively bind and stabilize the peptide-receptive MHC molecules prevent dissociation of the MHC complexes. To determine the yield of the exchange reaction, an ELISA was performed based on the detection of the light chain (β2m) of stabilized MHC complexes. The assay was performed as generally described in Rodenko et al. (Rodenko et al., 2006).
# 96 well MAXISorp plates (NUNC) were coated over night with 2 ug/ml streptavidin in PBS at room temperature, washed 4× and blocked for 1h at 37° C. in 2% BSA containing blocking buffer. […] Peptide-MHC monomers of the UV-exchange reaction were diluted 100 fold in blocking buffer. Samples were incubated for 1h at 37° C., washed four times, incubated with 2 ug/ml HRP conjugated anti-β2m for 1h at 37° C., washed again and detected with TMB solution that is stopped with […]. Absorption was measured at 450 nm. Candidate peptides that show a high exchange yield (preferably higher than 50%, most preferred higher than 75%) are generally preferred for a generation and production of antibodies or fragments thereof, and/or T cell receptors or fragments thereof, as they show sufficient avidity to the MHC molecules and prevent dissociation of the MHC complexes.
substance,measurement,value
46 (ILTEENIHL; listed as Homo sapiens) [compound 46],Peptide exchange,“+++” (≧50 = +++)
47 (ILLSVPLLVV; listed as Homo sapiens) [compound 47],Peptide exchange,“++” (≧20% = ++)
50 (SLSELEALM; listed as Homo sapiens) [compound 50],Peptide exchange,“+++” (≧50 = +++)
51 (LLPDLEFYV; listed as Homo sapiens) [compound 51],Peptide exchange,“++++” (≧75% = ++++)
52 (FLLAHGLGFLL; listed as Homo sapiens) [compound 52],Peptide exchange,“++++” (≧75% = ++++)
53 (KMIETDILQKV; listed as Homo sapiens) [compound 53],Peptide exchange,“++++” (≧75% = ++++)
54 (SLLEQGKEPWMV; listed as Homo sapiens) [compound 54],Peptide exchange,“+++” (≧50 = +++)
55 (SLLDLETLSL; listed as Homo sapiens) [compound 55],Peptide exchange,“++++” (≧75% = ++++)
57 (TLAELQPPVQL; listed as Homo sapiens) [compound 57],Peptide exchange,“+++” (≧50 = +++)
59 (IMEDIILTL; listed as Homo sapiens) [compound 59],Peptide exchange,“+++” (≧50 = +++)
62 (VLLDVSAGQLLM; listed as Homo sapiens) [compound 62],Peptide exchange,“++++” (≧75% = ++++)
63 (YLLPSGGSVTL; listed as Homo sapiens) [compound 63],Peptide exchange,“++” (≧20% = ++)
64 (YAAPGGLIGV; listed as Homo sapiens) [compound 64],Peptide exchange,“++” (≧20% = ++)
66 (FLDENIGGVAV; listed as Homo sapiens) [compound 66],Peptide exchange,“+++” (≧50 = +++)
67 (TLLAEALVTV; listed as Homo sapiens) [compound 67],Peptide exchange,“+++” (≧50 = +++)
68 (SLMELPRGLFL; listed as Homo sapiens) [compound 68],Peptide exchange,“++++” (≧75% = ++++)
69 (FQLDPSSGVLVTV; listed as Homo sapiens) [compound 69],Peptide exchange,“+++” (≧50 = +++)
70 (GLLDYPVGV; listed as Homo sapiens) [compound 70],Peptide exchange,“+++” (≧50 = +++)
71 (GILARIASV; listed as Homo sapiens) [compound 71],Peptide exchange,“+++” (≧50 = +++)
72 (SLLELDGINL; listed as Homo sapiens) [compound 72],Peptide exchange,“+++” (≧50 = +++)
73 (NIFDLQIYV; listed as Homo sapiens) [compound 73],Peptide exchange,“+++” (≧50 = +++)
74 (ALLDPEVLSIFV; listed as Homo sapiens) [compound 74],Peptide exchange,“+++” (≧50 = +++)
75 (GLLEVMVNL; listed as Homo sapiens) [compound 75],Peptide exchange,“+++” (≧50 = +++)
76 (ILIDSIYKV; listed as Homo sapiens) [compound 76],Peptide exchange,“+++” (≧50 = +++)
77 (ILVEADGAWVV; listed as Homo sapiens) [compound 77],Peptide exchange,“++++” (≧75% = ++++)
78 (SLFSSLEPQIQPV; listed as Homo sapiens) [compound 78],Peptide exchange,“+++” (≧50 = +++)
80 (FLYDNLVESL; listed as Homo sapiens) [compound 80],Peptide exchange,“++” (≧20% = ++)
81 (FLFSQLQYL; listed as Homo sapiens) [compound 81],Peptide exchange,“++” (≧20% = ++)
82 (FLSSVTYNL; listed as Homo sapiens) [compound 82],Peptide exchange,“+++” (≧50 = +++)
83 (ILAPTVMMI; listed as Homo sapiens) [compound 83],Peptide exchange,“+++” (≧50 = +++)
84 (VTFGEKLLGV; listed as Homo sapiens) [compound 84],Peptide exchange,“++” (≧20% = ++)
85 (KMSELRVTL; listed as Homo sapiens) [compound 85],Peptide exchange,“+++” (≧50 = +++)
86 (NLIGKIENV; listed as Homo sapiens) [compound 86],Peptide exchange,“+++” (≧50 = +++)
87 (ALPEAPAPLLPHIT; listed as Homo sapiens) [compound 87],Peptide exchange,“++” (≧20% = ++)
88 (FLLVGDLMAV; listed as Homo sapiens) [compound 88],Peptide exchange,“+++” (≧50 = +++)
89 (YILPTETIYV; listed as Homo sapiens) [compound 89],Peptide exchange,“++++” (≧75% = ++++)
90 (TLLQIIETV; listed as Homo sapiens) [compound 90],Peptide exchange,“+++” (≧50 = +++)
91 (IMQDFPAEIFL; listed as Homo sapiens) [compound 91],Peptide exchange,“++++” (≧75% = ++++)
92 (YLIPFTGIVGL; listed as Homo sapiens) [compound 92],Peptide exchange,“++” (≧20% = ++)
93 (LLQAIKLYL; listed as Homo sapiens) [compound 93],Peptide exchange,“++” (≧20% = ++)
94 (YLIDIKTIAI; listed as Homo sapiens) [compound 94],Peptide exchange,“++” (≧20% = ++)
95 (SVIPQIQKV; listed as Homo sapiens) [compound 95],Peptide exchange,“+++” (≧50 = +++)
96 (YIFTDNPAAV; listed as Homo sapiens) [compound 96],Peptide exchange,“+++” (≧50 = +++)
97 (SLINGSFLV; listed as Homo sapiens) [compound 97],Peptide exchange,“+++” (≧50 = +++)
98 (LIIDQADIYL; listed as Homo sapiens) [compound 98],Peptide exchange,“+++” (≧50 = +++)
99 (ALVSKGLATV; listed as Homo sapiens) [compound 99],Peptide exchange,“++” (≧20% = ++)
100 (YLLSTNAQL; listed as Homo sapiens) [compound 100],Peptide exchange,“++++” (≧75% = ++++)
101 (ILVGGGALATV; listed as Homo sapiens) [compound 101],Peptide exchange,“+++” (≧50 = +++)
102 (YLFESEGLVL; listed as Homo sapiens) [compound 102],Peptide exchange,“+++” (≧50 = +++)
103 (TLAEEVVAL; listed as Homo sapiens) [compound 103],Peptide exchange,“+++” (≧50 = +++)
104 (STMEQNFLL; listed as Homo sapiens) [compound 104],Peptide exchange,“++++” (≧75% = ++++)
106 (LLYDAVHIVSV; listed as Homo sapiens) [compound 106],Peptide exchange,“+++” (≧50 = +++)
107 (FLQPVDDTQHL; listed as Homo sapiens) [compound 107],Peptide exchange,“+++” (≧50 = +++)
109 (IILSILEQA; listed as Homo sapiens) [compound 109],Peptide exchange,“++++” (≧75% = ++++)
110 (FLSQVDFEL; listed as Homo sapiens) [compound 110],Peptide exchange,“+++” (≧50 = +++)
111 (YVWGFYPAEV; listed as Homo sapiens) [compound 111],Peptide exchange,“+++” (≧50 = +++)
114 (SLVGEPILQNV; listed as Homo sapiens) [compound 114],Peptide exchange,“++” (≧20% = ++)
115 (AIAGAGILYGV; listed as Homo sapiens) [compound 115],Peptide exchange,“++” (≧20% = ++)
116 (YHIDEEVGF; listed as Homo sapiens) [compound 116],Peptide exchange,“+” (≧10% = +)
117 (ILPDGEDFLAV; listed as Homo sapiens) [compound 117],Peptide exchange,“+++” (≧50 = +++)
119 (FLYIGDIVSL; listed as Homo sapiens) [compound 119],Peptide exchange,“++++” (≧75% = ++++)
120 (ALLGIPLTLV; listed as Homo sapiens) [compound 120],Peptide exchange,“+++” (≧50 = +++)
121 (GVVDPRAISVL; listed as Homo sapiens) [compound 121],Peptide exchange,“++” (≧20% = ++)
122 (FLLAEDDIYL; listed as Homo sapiens) [compound 122],Peptide exchange,“+++” (≧50 = +++)
123 (NLWDLTDASVV; listed as Homo sapiens) [compound 123],Peptide exchange,“+++” (≧50 = +++)
124 (ALYETELADA; listed as Homo sapiens) [compound 124],Peptide exchange,“++” (≧20% = ++)
125 (VQIHQVAQV; listed as Homo sapiens) [compound 125],Peptide exchange,“+++” (≧50 = +++)
126 (VLAYFLPEA; listed as Homo sapiens) [compound 126],Peptide exchange,“++++” (≧75% = ++++)
127 (KIGDEPPKV; listed as Homo sapiens) [compound 127],Peptide exchange,“++” (≧20% = ++)
128 (YLFDDPLSAV; listed as Homo sapiens) [compound 128],Peptide exchange,“++” (≧20% = ++)
129 (GLLDGGVDILL; listed as Homo sapiens) [compound 129],Peptide exchange,“+++” (≧50 = +++)
130 (FLWNGEDSALL; listed as Homo sapiens) [compound 130],Peptide exchange,“+++” (≧50 = +++)
